Laboratory results taken from article PMC10663500, “High-throughput analysis system of interaction kinetics for data-driven antibody design” (Scientific Reports, 2023).
Numbering of substitutions follows the chain as printed.

B1: toripalimab Fab L.P100T (Fab, V domains shown)
VH: QGQLVQSGAEVKKPGASVKVSCKASGYTFTDYEMHWVRQAPIHGLEWIGVIESETGGTAYNQKFKGRVTITADKSTSTAYMELSSLRSEDTAVYYCAREGITTVATTYYWYFDVWGQGTTVTVSS
VL: DVVMTQSPLSLPVTLGQPASISCRSSQSIVHSNGNTYLEWYLQKPGQSPQLLIYKVSNRFSGVPDRFSGSGSGTDFTLKISRVEAEDVGVYYCFQGSHVTLTFGQGTKLEIK
notes: as the heavy chain of Sm3; light chain of Sm3 with this change; numbers count from the chain's first residue; source: Brevibacillus, culture supernatant (ammonium sulfate precipitate); not shown: 6xHis, C-terminal, kept; 6xHN, C-terminal, kept
B2: toripalimab Fab L.L101G (Fab, V domains shown)
VH: B1 VH
VL: B1 VL with T100P, L101G
notes: as for B1
B3: toripalimab Fab L.L101D (Fab, V domains shown)
VH: B1 VH
VL: B1 VL with T100P, L101D
notes: as for B1
B4: toripalimab Fab L.L101F (Fab, V domains shown)
VH: B1 VH
VL: B1 VL with T100P, L101F
notes: as for B1
B5: toripalimab Fab L.P100Y (Fab, V domains shown)
VH: B1 VH
VL: B1 VL with T100Y
notes: as for B1
B6: toripalimab Fab L.L101I (Fab, V domains shown)
VH: B1 VH
VL: B1 VL with T100P, L101I
notes: as for B1
B7: toripalimab Fab L.L101E (Fab, V domains shown)
VH: B1 VH
VL: B1 VL with T100P, L101E
notes: as for B1
B8: toripalimab Fab L.L101A (Fab, V domains shown)
VH: B1 VH
VL: B1 VL with T100P, L101A
notes: as for B1
B9: toripalimab Fab L.P100W (Fab, V domains shown)
VH: B1 VH
VL: B1 VL with T100W
notes: as for B1
B10: toripalimab Fab L.P100V (Fab, V domains shown)
VH: B1 VH
VL: B1 VL with T100V
notes: as for B1
B11: toripalimab Fab H.S53Y (Fab, V domains shown)
VH: B1 VH with S53Y
VL: B1 VL with T100P
notes: heavy chain of Sm3 with this change; numbers count from the chain's first residue; as the light chain of Sm3; source: Brevibacillus, culture supernatant (ammonium sulfate precipitate); not shown: 6xHis, C-terminal, kept; 6xHN, C-terminal, kept

biological target: T1, human programmed cell death protein 1 (hPD-1) C93S (aa 24-167) (Homo sapiens, UniProt Q15116, C93S); test: SPR; Carterra LSA; Fab from the ammonium sulfate precipitate of the culture supernatant immobilised on a NiHC200M chip; hPD-1 (1-1024 nM) or mPD-1-Fc (4-1024 nM) as analyte, fourfold dilution series, no regeneration; HBS-EP pH 7.4, 25 °C; medians over the spots of a construct, KD = koff/kon; settings: one partner purified
T1 construct: made as a fusion with a TEV site and human Fc; the Fc was cut off with TEV protease; source: Expi293F, purified (Protein A, TEV cleavage of Fc, SEC; monomer fractions); not shown: Fc (human), C-terminal, cleaved
How it was run: (§1)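 Fabs, ammonium sulfate-precipitated from Brevibacillus supernatants and redissolved in HBS-EP, were captured in duplicate on a NiHC200M chip on a Carterra LSA at 25 °C. Fourfold series of human PD-1 (1–1024 nM) or mouse PD-1-Fc (4–1024 nM) were run without regeneration, with association for 10 min and dissociation for 5 min. Rates were fitted with the kdka model, choosing the better of slow- or fast-dissociation settings, and unconfirmed binders were given kon 10^3 […] and koff 10^−2 s^−1. The dissociation constant KD is koff/kon based on per-construct medians.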

T1 sequence (Q15116 24-167 C93S): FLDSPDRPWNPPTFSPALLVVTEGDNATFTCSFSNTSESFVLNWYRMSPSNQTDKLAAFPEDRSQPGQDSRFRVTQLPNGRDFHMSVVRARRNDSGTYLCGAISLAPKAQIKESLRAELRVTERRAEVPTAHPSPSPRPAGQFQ

Row | Binder | Kd | koff | kon
1 | B1 | 1.24 nM | 1.18e-05 s⁻¹ | 9480 M⁻¹ s⁻¹
2 | B2 | < 1.95 nM | < 1e-05 s⁻¹ | 5120 M⁻¹ s⁻¹
3 | B3 | < 1.66 nM | < 1e-05 s⁻¹ | 6020 M⁻¹ s⁻¹
4 | B4 | 7.96 nM | 0.000141 s⁻¹ | 17700 M⁻¹ s⁻¹
5 | B5 | < 0.355 nM | < 1e-05 s⁻¹ | 28200 M⁻¹ s⁻¹
6 | B6 | < 1.55 nM | < 1e-05 s⁻¹ | 6430 M⁻¹ s⁻¹
7 | B7 | 13.6 nM | 0.000124 s⁻¹ | 9060 M⁻¹ s⁻¹
8 | B8 | < 1.61 nM | < 1e-05 s⁻¹ | 6210 M⁻¹ s⁻¹
9 | B9 | < 1.54 nM | < 1e-05 s⁻¹ | 6510 M⁻¹ s⁻¹
10 | B10 | 7.83 nM | 6.3e-05 s⁻¹ | 8040 M⁻¹ s⁻¹
11 | B11 | < 1.18 nM | < 1e-05 s⁻¹ | 8440 M⁻¹ s⁻¹

biological target: T2, mouse programmed cell death protein 1 Fc fusion protein (mPD-1-Fc), mPD-1 C60S (aa 25-167) (Mus musculus, UniProt Q02242, stabilised); test: as above; settings: one partner purified
T2 construct: not cleaved; source: Expi293F, purified (Protein A, SEC; dimeric fraction); not shown: Fc (human), C-terminal, kept
How it was run: as §1

Row | Binder | Kd | koff | kon
12 | B1 | 19.4 nM | 0.000259 s⁻¹ | 13400 M⁻¹ s⁻¹
13 | B2 | 40.1 nM | 0.000405 s⁻¹ | 10100 M⁻¹ s⁻¹
14 | B3 | 172 nM | 0.0046 s⁻¹ | 26800 M⁻¹ s⁻¹
15 | B4 | 1020 nM | 0.0615 s⁻¹ | 60300 M⁻¹ s⁻¹
16 | B5 | 1.79 nM | 3.62e-05 s⁻¹ | 20200 M⁻¹ s⁻¹
17 | B6 | 34.3 nM | 0.00056 s⁻¹ | 16300 M⁻¹ s⁻¹
18 | B7 | 95.6 nM | 0.00392 s⁻¹ | 41000 M⁻¹ s⁻¹
19 | B8 | 26.6 nM | 0.000225 s⁻¹ | 8470 M⁻¹ s⁻¹
20 | B9 | 3.6 nM | 3.39e-05 s⁻¹ | 9410 M⁻¹ s⁻¹
21 | B10 | 30.1 nM | 0.000479 s⁻¹ | 15900 M⁻¹ s⁻¹
22 | B11 | 187 nM | 0.00628 s⁻¹ | 33500 M⁻¹ s⁻¹
